Test results published in publication PMC12618484 (Nature Communications, 2025).
Changes are numbered by the printed parent chain. Numbers in names are those of the source. Values belong to the molecule of their own block, whether it stands above or below them.

Legend:
[1] = target: T1, dihydrolipoamide dehydrogenase (DLD) (Homo sapiens, UniProt P09622); test: bio-layer interferometry and SPR; type: binding
T1 sequence (P09622 36-509): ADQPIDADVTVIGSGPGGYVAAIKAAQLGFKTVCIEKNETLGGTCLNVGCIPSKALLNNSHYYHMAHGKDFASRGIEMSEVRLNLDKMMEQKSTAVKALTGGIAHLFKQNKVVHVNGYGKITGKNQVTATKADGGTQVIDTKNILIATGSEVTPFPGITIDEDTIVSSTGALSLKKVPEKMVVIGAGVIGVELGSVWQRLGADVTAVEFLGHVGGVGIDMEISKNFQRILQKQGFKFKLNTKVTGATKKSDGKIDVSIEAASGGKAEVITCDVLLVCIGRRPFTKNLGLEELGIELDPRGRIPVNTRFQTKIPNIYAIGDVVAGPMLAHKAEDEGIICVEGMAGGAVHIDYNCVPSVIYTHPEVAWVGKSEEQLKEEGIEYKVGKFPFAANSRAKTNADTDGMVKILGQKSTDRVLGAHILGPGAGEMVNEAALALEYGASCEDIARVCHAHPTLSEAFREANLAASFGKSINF

cross-linking = target: the molecule itself; test: cross-linking

Kd [1]: 500 to 600 nM
Molecule: O=C(O)CCCCC(CCSCc1ccccc1)SCc1ccccc1 (stereo not drawn) [devimistat]

B1: HA-tagged DLD-K430Q (enzyme, human, UniProt P09622 36-509, looked up)
chain: T1 sequence (P09622 36-509) with K395Q
stoichiometry N (cross-linking): 2

B2: HA-tagged DLD-K430R (enzyme, human, UniProt P09622 36-509, looked up)
chain: T1 sequence (P09622 36-509) with K395R
stoichiometry N (cross-linking): 2
